Article PMC5529588, “OsFH15, a class I formin, interacts with microfilaments and microtubules to regulate grain size via affecting cell expansion in rice” (Scientific Reports, 2017)

Target: actin filaments (rabbit muscle actin, polymerized) (rabbit, UniProt P68135 1-377)
Experiment: co-sedimentation; high-speed cosedimentation; 3 uM actin (AFs) with 0.25-8 uM FH1FH2; bound against free protein fitted with a hyperbolic function; three independent experiments; methods in the supplement
Details: both partners purified

B1: OsFH15 FH2 (truncated recombinant protein containing the FH2 domain of OsFH15) (domain or fragment)
chain: not shown
notes: OsFH15, class I formin of Oryza sativa, 788 a.a; source: E. coli Transetta (DE3), pET-30a(+), purified (Ni-NTA)
For B1, the Kd was 1510 ± 70 nM.
